Patent publication US20220324909A1 (COHBAR, published 2022)
Non-standard residues stand in square brackets, D forms with d. Primed or numbered codes have the meaning given here. No end group written: not given here. PEG12(3) = not defined here

T1: Apelin Receptor (APJ) stably overexpressed in CHO-K1 AGTRL1 Gi cells (human, UniProt P35414 1-380)
T1 sequence (looked up): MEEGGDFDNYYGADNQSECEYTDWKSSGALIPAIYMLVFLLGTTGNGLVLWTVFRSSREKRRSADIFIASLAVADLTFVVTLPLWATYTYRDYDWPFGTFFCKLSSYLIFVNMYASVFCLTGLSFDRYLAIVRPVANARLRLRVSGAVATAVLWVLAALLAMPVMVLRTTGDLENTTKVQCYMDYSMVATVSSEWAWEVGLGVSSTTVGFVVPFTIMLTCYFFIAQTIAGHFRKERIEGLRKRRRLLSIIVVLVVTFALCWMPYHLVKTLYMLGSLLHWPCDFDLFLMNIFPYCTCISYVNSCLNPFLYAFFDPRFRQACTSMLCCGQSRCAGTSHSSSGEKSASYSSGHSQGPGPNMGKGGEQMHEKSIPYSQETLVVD


molecular target: T1, Apelin Receptor (APJ) stably …; experiment: cell-based or functional assay

| Binder | cAMP levels, Percent of Pyr-Apelin-13 Control Activity (10 µM peptide, 10 µM forskolin) |
| --- | --- |
| Ac-RRMMGMVFQSLCG[dA]-NH2 [SEQ ID NO 63] | 21 % of Pyr-Apelin-13 control |
| RRMGYQCLEG[dA] [SEQ ID NO 28] | 3 % of Pyr-Apelin-13 control |
| RREMVYQCLEG[dA] [SEQ ID NO 26] | 29 % of Pyr-Apelin-13 control |
| RRMMGMVFQSL [SEQ ID NO 60] | 16 % of Pyr-Apelin-13 control |
| RRLLGLVFQSLCG[dA] [SEQ ID NO 33] | 27 % of Pyr-Apelin-13 control |
| RRMMGMVFQ [SEQ ID NO 58] | 5 % of Pyr-Apelin-13 control |
| RRXXGXVFQCLCGA ((Nle) norleucine at positions 3, 4 and 6; (dA) D-alanine at position 14) [SEQ ID NO 18] | 30 % of Pyr-Apelin-13 control |
| RRMMGMVFQSLSG[dA] [SEQ ID NO 17] | 26 % of Pyr-Apelin-13 control |
| KRRMMGMVFQCLCGA ((PEG12) on the N-terminal K (position 1); (dA) D-alanine at position 15) [SEQ ID NO 20] | 37 % of Pyr-Apelin-13 control |
| RRMEVYQCLCG[dA] (cysteine pairing not given here) [SEQ ID NO 31] | 2 % of Pyr-Apelin-13 control |
| RRMMGMVYQCLEG[dA] [SEQ ID NO 29] | 21 % of Pyr-Apelin-13 control |
| RMMGMVFQSL [SEQ ID NO 53] | 6 % of Pyr-Apelin-13 control |
| RRMMGMVAQCLEG[dA] [SEQ ID NO 30] | 31 % of Pyr-Apelin-13 control |
| RRMMGMVF [SEQ ID NO 57] | -1 % of Pyr-Apelin-13 control |
| RRMMGMVFQCLCG[dA]K(PEG12(3)) (cysteine pairing not given here) [SEQ ID NO 21] | 34 % of Pyr-Apelin-13 control |
| RMMGMVFQS [SEQ ID NO 52] | 15 % of Pyr-Apelin-13 control |
| RREMVYQCLCG[dA] (cysteine pairing not given here) [SEQ ID NO 25] | 3 % of Pyr-Apelin-13 control |
| RMMGMVFQ [SEQ ID NO 51] | 24 % of Pyr-Apelin-13 control |
| RRMMGMVFQS [SEQ ID NO 59] | -2 % of Pyr-Apelin-13 control |
| RRMAYQCLEG[dA] [SEQ ID NO 27] | 9 % of Pyr-Apelin-13 control |
| RRMVFQCLCG[dA] (cysteine pairing not given here) [SEQ ID NO 19] | 27 % of Pyr-Apelin-13 control |

Second part, the binder after the results:

| cAMP levels, Percent of Pyr-Apelin-13 Control Activity (10 µM peptide, 10 µM forskolin) | Binder |
| --- | --- |
| -2 % of Pyr-Apelin-13 control | RRMMGMV [SEQ ID NO 56] |
| 16 % of Pyr-Apelin-13 control | RRMVYQCLEG[dA] [SEQ ID NO 24] |
| 8 % of Pyr-Apelin-13 control | RMMGMVF [SEQ ID NO 50] |
| 4 % of Pyr-Apelin-13 control | RRMEVYQCLEG[dA] [SEQ ID NO 32] |
| 1 % of Pyr-Apelin-13 control | Ac-RRMMGMVFQSLCG[dA] [SEQ ID NO 61] |
| 20 % of Pyr-Apelin-13 control | RMMGMVFQSLCG[dA] [SEQ ID NO 54] |
| -4 % of Pyr-Apelin-13 control | RRMVFQCLEG[dA] [SEQ ID NO 23] |
| 62 % of Pyr-Apelin-13 control | RRMVYQCLCG[dA] (cysteine pairing not given here) [SEQ ID NO 22] |
| -7 % of Pyr-Apelin-13 control | RRMMGM [SEQ ID NO 55] |
| 27 % of Pyr-Apelin-13 control | RRMMGMVFQSLCG[dA]-NH2 [SEQ ID NO 62] |

molecular target: ProLink tagged human APJ (Apelin Receptor) in CHO-K1 AGTRL1 β-Arrestin cells (human, UniProt P35414 1-380); experiment: cell-based or functional assay

| Binder | β-Arrestin recruitment, Percent of Apelin-13 Control Activity (10 µM peptide) |
| --- | --- |
| RRMMGMVFQCLSG[dA] [SEQ ID NO 16] | 0 % of Apelin-13 control |
| Ac-RRMMGMVFQSLCG[dA]-NH2 [SEQ ID NO 63] | 9 % of Apelin-13 control |
| RRMGYQCLEG[dA] [SEQ ID NO 28] | -1 % of Apelin-13 control |
| RREMVYQCLEG[dA] [SEQ ID NO 26] | 0 % of Apelin-13 control |
| RRMMGMVFQSL [SEQ ID NO 60] | 0 % of Apelin-13 control |
| RRLLGLVFQSLCG[dA] [SEQ ID NO 33] | 9 % of Apelin-13 control |
| RRMMGMVFQ [SEQ ID NO 58] | 0 % of Apelin-13 control |
| RRXXGXVFQCLCGA ((Nle) norleucine at positions 3, 4 and 6; (dA) D-alanine at position 14) [SEQ ID NO 18] | 1 % of Apelin-13 control |
| RRMMGMVFQSLSG[dA] [SEQ ID NO 17] | 10 % of Apelin-13 control |
| KRRMMGMVFQCLCGA ((PEG12) on the N-terminal K (position 1); (dA) D-alanine at position 15) [SEQ ID NO 20] | 1 % of Apelin-13 control |
| RRMEVYQCLCG[dA] (cysteine pairing not given here) [SEQ ID NO 31] | 0 % of Apelin-13 control |
| RRMMGMVYQCLEG[dA] [SEQ ID NO 29] | 0 % of Apelin-13 control |
| RMMGMVFQSL [SEQ ID NO 53] | 1 % of Apelin-13 control |
| RRMMGMVAQCLEG[dA] [SEQ ID NO 30] | -1 % of Apelin-13 control |
| RRMMGMVF [SEQ ID NO 57] | 0 % of Apelin-13 control |
| RRMMGMVFQCLCG[dA]K(PEG12(3)) (cysteine pairing not given here) [SEQ ID NO 21] | 1 % of Apelin-13 control |
| RMMGMVFQS [SEQ ID NO 52] | 0 % of Apelin-13 control |
| RREMVYQCLCG[dA] (cysteine pairing not given here) [SEQ ID NO 25] | -1 % of Apelin-13 control |
| RMMGMVFQ [SEQ ID NO 51] | 0 % of Apelin-13 control |
| RRMMGMVFQS [SEQ ID NO 59] | 0 % of Apelin-13 control |
| RRMAYQCLEG[dA] [SEQ ID NO 27] | -1 % of Apelin-13 control |
| RRMVFQCLCG[dA] (cysteine pairing not given here) [SEQ ID NO 19] | 1 % of Apelin-13 control |

Next, values leading:

| β-Arrestin recruitment, Percent of Apelin-13 Control Activity (10 µM peptide) | Binder |
| --- | --- |
| 0 % of Apelin-13 control | RRMMGMV [SEQ ID NO 56] |
| -1 % of Apelin-13 control | RRMVYQCLEG[dA] [SEQ ID NO 24] |
| 0 % of Apelin-13 control | RMMGMVF [SEQ ID NO 50] |
| 0 % of Apelin-13 control | RRMEVYQCLEG[dA] [SEQ ID NO 32] |
| 5 % of Apelin-13 control | Ac-RRMMGMVFQSLCG[dA] [SEQ ID NO 61] |
| 1 % of Apelin-13 control | RMMGMVFQSLCG[dA] [SEQ ID NO 54] |
| 0 % of Apelin-13 control | RRMVFQCLEG[dA] [SEQ ID NO 23] |
| 0 % of Apelin-13 control | RRMVYQCLCG[dA] (cysteine pairing not given here) [SEQ ID NO 22] |
| 1 % of Apelin-13 control | RRMMGM [SEQ ID NO 55] |
| 2 % of Apelin-13 control | RRMMGMVFQSLCG[dA]-NH2 [SEQ ID NO 62] |
